# Source: patent US20220160874A1
# Biological target: CNTF receptor expressed on TF-1.CN5a.1 (ATCC CRL-2512) cells (UniProt P26992)
# Assay: cell-based or functional assay
# Sequence of UniProt P26992 (P26992 23-342 limits assumed): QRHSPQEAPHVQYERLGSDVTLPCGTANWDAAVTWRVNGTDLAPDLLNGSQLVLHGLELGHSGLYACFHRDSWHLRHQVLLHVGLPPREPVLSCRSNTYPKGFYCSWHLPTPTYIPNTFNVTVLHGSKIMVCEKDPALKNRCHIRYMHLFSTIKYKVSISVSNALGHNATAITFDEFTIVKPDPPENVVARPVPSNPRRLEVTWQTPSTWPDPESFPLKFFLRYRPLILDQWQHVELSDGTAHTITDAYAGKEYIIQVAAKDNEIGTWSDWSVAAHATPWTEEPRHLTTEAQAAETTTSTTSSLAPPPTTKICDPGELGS
substance,measurement,value
CNTF control protein (Life Technologies) (ligand),"EC50, TF-1.CN5a.1 cell proliferation",0.11 pM
